Numbering of substitutions follows the chain as printed. Names may count otherwise. One block for each binder: values may come before it.
Key:
[1] = target: T1, hexokinase-I (HK-I), endogenous in PC3 cells (human, UniProt P19367 1-917); test: affinity chromatography of PC3 cell extracts on beads-coupled MFF peptide #8, Western blot of bound proteins
T1 sequence (looked up): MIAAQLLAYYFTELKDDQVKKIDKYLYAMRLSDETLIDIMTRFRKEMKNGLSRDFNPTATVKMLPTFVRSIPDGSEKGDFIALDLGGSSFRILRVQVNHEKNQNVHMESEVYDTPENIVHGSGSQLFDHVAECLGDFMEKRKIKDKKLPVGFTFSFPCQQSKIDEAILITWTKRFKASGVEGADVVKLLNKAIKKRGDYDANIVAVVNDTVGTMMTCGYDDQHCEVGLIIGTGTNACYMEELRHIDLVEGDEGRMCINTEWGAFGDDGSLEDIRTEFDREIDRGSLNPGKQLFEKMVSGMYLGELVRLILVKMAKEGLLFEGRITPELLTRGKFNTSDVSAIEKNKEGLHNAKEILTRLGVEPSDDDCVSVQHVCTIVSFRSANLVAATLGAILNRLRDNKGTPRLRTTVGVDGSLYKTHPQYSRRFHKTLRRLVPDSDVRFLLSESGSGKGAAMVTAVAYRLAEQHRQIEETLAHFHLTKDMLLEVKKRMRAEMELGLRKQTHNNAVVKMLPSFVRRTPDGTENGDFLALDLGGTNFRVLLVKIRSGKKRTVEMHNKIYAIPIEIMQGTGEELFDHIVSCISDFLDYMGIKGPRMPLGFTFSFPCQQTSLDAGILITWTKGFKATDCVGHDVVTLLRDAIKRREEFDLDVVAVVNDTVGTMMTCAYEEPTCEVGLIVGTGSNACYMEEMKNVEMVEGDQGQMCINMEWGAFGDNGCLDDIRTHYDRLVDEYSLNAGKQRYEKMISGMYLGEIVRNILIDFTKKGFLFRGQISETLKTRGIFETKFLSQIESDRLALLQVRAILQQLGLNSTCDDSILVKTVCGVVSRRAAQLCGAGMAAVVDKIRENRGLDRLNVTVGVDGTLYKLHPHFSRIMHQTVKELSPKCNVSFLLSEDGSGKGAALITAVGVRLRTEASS

[2] = target: T2, hexokinase-II (HK-II), endogenous in PC3 cells (human, UniProt P52789 1-917); test: as above
T2 sequence (looked up): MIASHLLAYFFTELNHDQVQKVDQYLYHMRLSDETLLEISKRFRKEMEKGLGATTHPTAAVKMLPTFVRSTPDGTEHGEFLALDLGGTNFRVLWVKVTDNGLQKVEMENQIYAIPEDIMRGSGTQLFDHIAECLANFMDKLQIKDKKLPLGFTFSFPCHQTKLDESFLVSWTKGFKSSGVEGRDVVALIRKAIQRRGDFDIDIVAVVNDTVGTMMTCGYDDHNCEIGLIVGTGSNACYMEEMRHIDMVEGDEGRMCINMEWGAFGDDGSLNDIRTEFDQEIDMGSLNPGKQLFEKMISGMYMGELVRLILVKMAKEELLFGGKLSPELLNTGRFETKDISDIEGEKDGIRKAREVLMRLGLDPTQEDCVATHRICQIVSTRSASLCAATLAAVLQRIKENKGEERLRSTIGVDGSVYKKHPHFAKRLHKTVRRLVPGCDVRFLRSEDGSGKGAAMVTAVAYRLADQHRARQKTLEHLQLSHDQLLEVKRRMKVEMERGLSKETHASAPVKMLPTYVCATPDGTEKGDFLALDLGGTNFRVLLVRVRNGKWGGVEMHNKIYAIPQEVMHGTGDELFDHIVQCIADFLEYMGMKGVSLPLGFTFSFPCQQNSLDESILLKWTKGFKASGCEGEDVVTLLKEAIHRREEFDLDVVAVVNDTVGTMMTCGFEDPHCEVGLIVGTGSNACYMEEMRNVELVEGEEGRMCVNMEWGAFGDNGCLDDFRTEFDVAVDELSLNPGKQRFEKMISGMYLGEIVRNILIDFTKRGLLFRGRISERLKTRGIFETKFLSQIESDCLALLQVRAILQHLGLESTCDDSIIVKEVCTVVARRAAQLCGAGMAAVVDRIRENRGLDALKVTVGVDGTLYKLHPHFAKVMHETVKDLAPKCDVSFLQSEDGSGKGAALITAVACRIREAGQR

[3] = target: T3, VDAC1 (endogenous, in PC3 cell extracts) (human, UniProt P21796 2-283); test: as above
T3 construct: also called voltage-dependent anion channel-1

[4] = target: T1, hexokinase-I (HK-I), endogenous in PC3 …; test: co-immunoprecipitation with anti-Flag from PC3 cells, Western blot
[5] = target: T3, VDAC1 (endogenous, in PC3 cell extracts); test: as above
[6] = target: Dynamin-Related Protein-1 (Drp1), endogenous in PC3 cells (human, UniProt O00429 1-736, limits assumed); test: as above
[7] = target: T4, recombinant full length human VDAC1 (hVDAC1) (human, UniProt P21796 1-283); test: isothermal titration calorimetry, scrambled peptide injected into human recombinant VDAC
T4 construct: domain: full length; also called human recombinant VDAC; recombinant VDAC1
Protocol: (§1) Isothermal titration calorimetry (ITC). ITC experiments were performed using MlcroCal iTC200 (Malvern). Purified full-length hVDAC1 was buffer-exchanged into 25 mM HEPES-KOH (pH 7.5), 0.1 M KCl, 5% glycerol, 2% n-Octylglucoside, and 1 mM TCEP (ITC buffer). […] The ITC binding experiments were carried out at 20° C. Peptides at a concentration of 100 μM were added by 2.47 μl injections to 10 μM hVDAC1. The data collected was processed in MicroCal Origin software (Malvern).

[8] = target: T2, hexokinase-II (HK-II), endogenous in …; test: co-immunoprecipitation with anti-Flag from transfected PC3 cells, Western blot and densitometry (AU)
[9] = target: T4, recombinant full length human VDAC1 …; test: isothermal titration calorimetry, 100 µM peptide injected into 10 µM hVDAC1, 20 °C
Protocol: as §1

[10] = target: T4, recombinant full length human VDAC1 …; test: isothermal titration calorimetry, peptide injected into human recombinant VDAC
Protocol: as §1

T4 sequence (P21796 whole entry): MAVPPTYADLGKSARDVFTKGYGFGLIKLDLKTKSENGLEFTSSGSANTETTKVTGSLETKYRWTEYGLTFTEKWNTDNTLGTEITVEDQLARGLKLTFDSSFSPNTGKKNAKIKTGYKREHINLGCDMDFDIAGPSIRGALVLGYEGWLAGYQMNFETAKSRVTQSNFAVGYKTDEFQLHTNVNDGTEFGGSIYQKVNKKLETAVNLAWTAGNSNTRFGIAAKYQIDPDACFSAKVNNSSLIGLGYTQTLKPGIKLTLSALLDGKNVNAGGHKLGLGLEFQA
T3 sequence (P21796 2-283 limits assumed): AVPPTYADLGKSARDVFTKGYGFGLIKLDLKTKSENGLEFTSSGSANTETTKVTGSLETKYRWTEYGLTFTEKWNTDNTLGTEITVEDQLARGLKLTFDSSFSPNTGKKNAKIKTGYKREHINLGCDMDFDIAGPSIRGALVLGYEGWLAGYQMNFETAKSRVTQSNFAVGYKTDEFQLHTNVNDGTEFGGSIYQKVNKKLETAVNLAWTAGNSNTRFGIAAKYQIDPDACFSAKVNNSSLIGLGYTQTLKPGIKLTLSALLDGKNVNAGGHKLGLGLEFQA
Chain of Dynamin-Related Protein-1 (Drp1), endogenous in PC3 cells (O00429 whole entry): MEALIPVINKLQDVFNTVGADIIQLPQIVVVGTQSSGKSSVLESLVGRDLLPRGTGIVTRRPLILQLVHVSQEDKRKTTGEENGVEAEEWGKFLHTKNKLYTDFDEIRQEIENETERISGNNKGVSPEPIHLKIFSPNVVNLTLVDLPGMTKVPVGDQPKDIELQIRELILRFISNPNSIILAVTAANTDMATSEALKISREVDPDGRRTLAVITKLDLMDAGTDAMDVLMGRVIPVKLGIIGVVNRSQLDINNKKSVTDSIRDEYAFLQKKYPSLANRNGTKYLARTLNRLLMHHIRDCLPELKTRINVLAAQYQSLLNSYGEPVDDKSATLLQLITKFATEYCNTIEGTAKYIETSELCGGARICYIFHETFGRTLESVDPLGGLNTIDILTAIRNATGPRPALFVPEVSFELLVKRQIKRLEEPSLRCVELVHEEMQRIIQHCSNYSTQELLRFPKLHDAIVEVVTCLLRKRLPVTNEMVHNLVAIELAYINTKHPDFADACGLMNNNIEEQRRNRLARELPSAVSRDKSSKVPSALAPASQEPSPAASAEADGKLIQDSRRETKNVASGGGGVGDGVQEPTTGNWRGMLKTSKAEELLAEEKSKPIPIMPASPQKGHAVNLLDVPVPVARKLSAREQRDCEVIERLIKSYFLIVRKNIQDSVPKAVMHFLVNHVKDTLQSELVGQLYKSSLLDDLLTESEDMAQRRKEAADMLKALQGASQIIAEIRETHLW

binding result [1]: binds | binding result [2]: binds | binding result [3]: binds
B1: MFF peptide #8 (Asp217-Leu246 of MFF1) (peptide)
peptide: DGANLSSARGILSLIQSSTRRAYQQILDVL
notes: also called MFF #8

binding result [4]: no binding | binding result [5]: no binding
B2: Flag-MFF5 (other, human, UniProt Q9GZY8-5 1-238, looked up)
chain: MAEISRIQYEMEYTEGISQRMRVPEKLKVAPPNADLEQGFQEGVPNASVIMQVPERIVVAGNNEDVSFSRPADLDLIQSTPFKPLALKTPPRVLTLSERPLDFLDLERPPTTPQNEEIRAVGRLKRERSMSENAVRQNGQLVRNDSLPVLRGGSAAATSNPHHDNVRYGISNIDTTIEGTSDDLTVVDAASLRRQIIKLNRRLQLLEEENKERAKREMVMYSITVAFWLLNSWLWFRR
notes: also called Flag-MIFFS (misprint in legend); not shown: Flag tag

binding result [6]: no binding
B3: Flag-MFF2 (other, human, UniProt Q9GZY8-2 1-291, looked up)
chain: MAEISRIQYEMEYTEGISQRMRVPEKLKVAPPNADLEQGFQEGVPNASVIMQVPERIVVAGNNEDVSFSRPADLDLIQSTPFKPLALKTPPRVLTLSERPLDFLDLERPPTTPQNEEIRAVGRLKRERSMSENAVRQNGQLVRNDSLVTPSPQQARVCPPHMLPEDGANLSSARGILSLIQSSTRRAYQQILDVLDENRRPVLRGGSAAATSNPHHDNVRYGISNIDTTIEGTSDDLTVVDAASLRRQIIKLNRRLQLLEEENKERAKREMVMYSITVAFWLLNSWLWFRR
notes: not shown: Flag tag

binding result [7]: no binding (tested: molar ratio about 2)
B4: scrambled variant of MFF peptide 8#11 (peptide)
peptide: SSQLRYLARSQRITIQLIAGS
notes: Control peptide in ITC; also called MFF scrambled peptide

binding result [8]: binds
B5: Flag-MFF1 Q241A (other, not shown: small tags and cut ends)
chain: MSKGTSSDTSLGRVSRAAFPSPTAAEMAEISRIQYEMEYTEGISQRMRVPEKLKVAPPNADLEQGFQEGVPNASVIMQVPERIVVAGNNEDVSFSRPADLDLIQSTPFKPLALKTPPRVLTLSERPLDFLDLERPPTTPQNEEIRAVGRLKRERSMSENAVRQNGQLVRNDSLWHRSDSAPRNKISRFQAPISAPEYTVTPSPQQARVCPPHMLPEDGANLSSARGILSLIQSSTRRAYQAILDVLDENRRPVLRGGSAAATSNPHHDNVRYGISNIDTTIEGTSDDLTVVDAASLRRQIIKLNRRLQLLEEENKERAKREMVMYSITVAFWLLNSWLWFRR
notes: also called mutant Flag-MFF Q241A

binding result [8]: binds
B6: Flag-MFF1 R225D (other, not shown: small tags and cut ends)
chain: B5 chain with R225D, A241Q
notes: also called mutant Flag-MFF R225D

binding result [8]: binds
B7: Flag-MFF1 R236D (other, not shown: small tags and cut ends)
chain: B5 chain with R236D, A241Q
notes: also called mutant Flag-MFF R236D

Kd [9]: ~12 µM | Kd [10]: 12 µM
B8: MFF peptide #8-11 (Ser223-Leu243 of MFF1), wild type (peptide)
peptide: SARGILSLIQSSTRRAYQQIL
notes: Plain synthetic peptide (not the cell-permeable form) as used in ITC; also called WT MFF peptide #8-11; MFF (L) peptide #8-11

Reference: patent US20220348620A1 (WISTAR INSTITUTE OF ANATOMY AND BIOLOGY, published 2022)
